{
  "source": "paper PMC12797046",
  "proteins": {"B1": {"name": "LATS1: 4A (protein)", "parent chain": "MKRSEKPEGYRQMRPKTFPASNYTVSSRQMLQEIRESLRNLSKPSDAAKAEHNMSKMSTEDPRQVRNPPKFGTHHKALQEIRNSLLPFANETNSSRSTSEVNPQMLQDLQAAGFDEDMVIQALQKTNNRSIEAAIEFISKMSYQDPRREQMAAAAARPINASMKPGNVQQSVNRKQSWKGSKESLVPQRHGPPLGESVAYHSESPNSQTDVGRPLSGSGISAFVQAHPSNGQRVNPPPPPQVRSVTPPPPPRGQTPPPRGTTPPPPSWEPNSQTKRYSGNMEYVISRISPVPPGAWQEGYPPPPLNTSPMNPPNQGQRGISSVPVGRQPIIMQSSSKFNFPSGRPGMQNGTGQTDFMIHQNVVPAGTVNRQPPPPYPLTAANGQSPSALQTGGSAAPSSYTNGSIPQSMMVPNRNSHNMELYNISVPGLQTNWPQSSSAPAQSSPSSGHEIPTWQPNIPVRSNSFNNPLGNRASHSANSQPSATTVTAITPAPIQQPVKSMRVLKPELQTALAPTHPSWIPQPIQTVQPSPFPEGTASNVTVMPPVAEAPNYQGPPPPYPKHLLHQNPSVPPYESISKPSKEDQPSLPKEDESEKSYENVDSGDKEKKQITTSPITVRKNKKDEERRESRIQSYSPQAFKFFMEQHVENVLKSHQQRLHRKKQLENEMMRVGLSQDAQDQMRKMLCQKESNYIRLKRAKMDKSMFVKIKTLGIGAFGEVCLARKVDTKALYATKTLRKKDVLLRNQVAHVKAERDILAEADNEWVVRLYYSFQDKDNLYFVMDYIPGGDMMSLLIRMGIFPESLARFYIAELTCAVESVHKMGFIHRDIKPDNILIDRDGHIKLTDFGLCTGFRWTHDSKYYQSGDHPRQDSMDFSNEWGDPSSCRCGDRLKPLERRAARQHQRCLAHSLVGTPNYIAPEVLLRTGYTQLCDWWSVGVILFEMLVGQPPFLAQTPLETQMKVINWQTSLHIPPQAKLSPEASDLIIKLCRGPEDRLGKNGADEIKAHPFFKTIDFSSDLRQQSASYIPKITHPTDTSNFDPVDPDKLWSDDNEEENVNDTLNGWYKNGKHPEHAFYEFTFRRFFDDNGYPYNYPKPIEYEYINSQGSEQQSDEDDQNTGSEIKNRDLVYV"}, "B2": {"name": "LATS1: LATS1-4A (protein)", "parent chain": "B1 parent chain"}},
  "key": {"[1]": {"test": "HA-Ub co-transfection, MG-132, anti-MYC IP, blot", "conditions": "glycan lost; control: LATS1-WT"}, "[2]": {"test": "cycloheximide chase, degradation rate", "conditions": "glycan lost; control: LATS1-WT"}, "[3]": {"test": "Nub-Gal4 overexpression, wing area", "conditions": "glycan lost; control: Nub > LATS1, standard medium"}, "[4]": {"test": "Nub-Gal4 overexpression, wing area, no-glucose medium", "conditions": "glycan lost; control: Nub > LATS1, glucose-free medium"}},
  "data": [
    {"protein": "B1", "values": [
      {"measurement": "other: ubiquitination", "setting": "[1]", "value": "decreases"},
      {"measurement": "degradation_or_half_life", "setting": "[2]", "value": "decreases"}
    ]},
    {"protein": "B2", "values": [
      {"measurement": "other: Drosophila wing size", "setting": "[3]", "value": "decreases"},
      {"measurement": "other: Drosophila wing size", "setting": "[4]", "value": "no change"}
    ]}
  ]
}
